The values below come from publication doi:10.1101/2023.11.08.566319.

In general, stoichiometry N refers to a count of units in the complex or per binding partner.

The test addresses T33-51 protein cage subunit B. Description: native MS; SEC-purified co-expressed cage, 2 uM in 200 mM ammonium acetate pH 7.4; Q Exactive UHMR. To be noted: scale: copies of A with 12 copies of B in the cage.

For “T33-51 protein cage subunit A (designed binder)”, the stoichiometry N came to 11.
